Patent US8617883

Target: Ephrin-B2 (human, full length coding sequence, expressed on mesenchymal stem cells nucleofected with pEphrin-B2/IRES2-eGFP) (human) (UniProt P52799)
Experiment: flow cytometry, Fc-chimera binding to Ephrin-B2-transfected MSCs against untransfected MSCs, FITC anti-human IgG1 detection

Chain of UniProt P52799 (P52799 28-333): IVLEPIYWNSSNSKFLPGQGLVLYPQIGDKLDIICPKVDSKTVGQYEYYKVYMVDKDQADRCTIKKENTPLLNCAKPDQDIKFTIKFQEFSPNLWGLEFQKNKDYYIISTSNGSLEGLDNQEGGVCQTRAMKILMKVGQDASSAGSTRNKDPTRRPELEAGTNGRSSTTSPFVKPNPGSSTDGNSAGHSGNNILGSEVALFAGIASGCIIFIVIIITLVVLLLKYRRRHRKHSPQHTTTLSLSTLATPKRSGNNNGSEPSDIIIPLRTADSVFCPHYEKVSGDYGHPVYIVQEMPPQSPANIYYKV

For “Eph-B4/Fc chimera protein (pre-clustered) (Fc fusion)”, the increase in binding to transfected MSCs compared to normal cells was 22%.
